# Test: soluble on expression in E. coli; label from the status in PepcDB or PDB records
row,Sequence,soluble on expression in E. coli
1,MRWEELSEQPCSLARVLAILGDRWTLLVLRDCFLGVRRFDDFERSLGVTRHVLADRLKRLVEAEILAKVPYQERPLREEYRLTEKGMELYPAILSLVNWGDRHLAGVEGPPLEHVHKHCGQHMHGVLVCSECGEPLHARDVTVREGLFWKGRLLRRG,not soluble
2,MEKLLIEGGRALNGTIRVSGAKNSAVALIPATILADTPVTIGGVPNISDVKMLGDLLEEIGGRVTYGQEEEMVVDPSNMVAMPLPNGKVKKLRASYYLMGAMLGRFKKAVIGLPGGCHLGPRPIDQHIKGFEALGAHVTNEQGAIYLRADELRGARIYLDVVSVGATINIMLAAVRAKGRTVIENAAKEPEIIDVATLLTSMGARIKGAGTDVIRIDGVDSLHGCHHTIIPDRIEAGTYMILGAASGGEVTVDNVIPQHLESVTAKLREAGVQVETNDDQITVNGDRRLKVVDIKTLVYPGFPTDLQQPFTTLLTKAHGTGVVTDTIYGARFKHIDELRRMNAQIKVEGRSAIVTGPVLLQGAKVKASDLRAGAALVIAGLMADGITEVTGLEHIDRGYENIVDKLKGLGANIWREQMTKQEIEEMKNA,not soluble
3,MKDFPIRFVLTDEAITPSAGLALVGYLLHQTKLNKRVNALRPPTVRRDVHISHSDVIRSMIGLLATGKTDFDHIEAYRQDDIFSTSMGIQHVPSSPTLRQRLDQLACLPMTETILWEESMRLLIQRHATLSPCWAKGKTTWLPLDIDGSPFDNSDTKKEGVSRTYKGFDGFTPLFAYAGKEGYIVHAELRPGKQHVQDNMPSFLTTAIRRARQLTSSRLLVRMDAGNDAEANVHVCLKEDVDFVIKRNLRRESKALWFQIASQKGKRVDDGQTEGVQTYELCLPQTAAIDGNTYTYVQVTQVTERTMERNGQVMLVPNYEVESYWVRLKGYEHVRMSDVLALYHDHATCEQFHSELKSDLDLERLPSGKMKTNALVLVMGAFVYNLLRLIGQDLLSDPRHPLHHKVKRRRIKTIIQTVITMAGRLVRRSRQLWMKLTRRSGYSILLLNVYQKWKEAR,not soluble
4,MAHHHHHHMRANPIERRKERETALSVRQRELEELRQRKAQLGEELGMELSALEGDNLAAAFPVIQYCGSRPKKDAKKIPVESLGSVMNQFEIAIKAISQNNRDIEQQITDLNRTIGVEAQRFTKLKRHSKELADATGVSLDPNAVQHLAGKSRDGEDCSGGLKELEETTVVLEERKALVEKEIRAARQLVKKKEEAVLAMSSALESRQEEIDQLNRLYNDIRVVDRDIKCEKETLREIISEHDIVDTKLNEAIERNVSRTRLLIEQGINEIKTEIADSVSVSRRGQERVMKAQEFRIDQLEKRLDCINKALKNNHLTRDVEAIVSHKWAAAGDALVAATPDESMYDIEAIIPPQERCHPAIYNLLLTEKERLARRISLLGIIAKEKKEVIDALACKAEALARECQQAIQELDHVASAAAYEEEMQRVEAMEYIQKQRLHYSDLFKEMWKLKTKNQGPLWRAY,not soluble
5,PEPAQQQAPVEKPKKKAKLEVIGDDVVSIMVSLRWLEFLLDNYGPENTLDVLDYYESLGWISATVKEQMMKYAKMTGVMNPAQEYKIKPSIQDHIINMLFIEKLRGEEINRDLIEALEREFRTIRKGVDELYGI,not soluble
6,MYAGINYDQLFGTEQVRERQLPLHSSQAQHFLNEVKPILDNRCVVCHACYDAPCQLKMTSAEGIDRGASKALVYQGTRLTAATPTRLYEDAQLTQEWRAAGFHPVLNERNQTAQANLDAGVMARLLMQKERHPLPQQDQLQGFDFSIDREQTCPTINEMDHFEQVNPNWGMPFGMPNLSPKEYTTLLSWLQEGAVMNQALPLSAQEQALVTEYEALLNHSSRKNQLAARYIYEHLFLSHLYFSEIAQERPRFFKLIRSSTPPGEPVKRIVTRRPYDDPGVERVYYRLVPEQETIVDKTHMPFALNKQRIANWKLWFIDADYEVAELPSYRPDIAANPMSAFIDLPVKARFKFLLDNAQNTVMAFIKGPVCRGQLALNVINDRFWVFFLDPEKADLPEVNEFYRSQVNNLKLPAEQENTALPLSNWVRYSLQQSRYLEAKSEFINQWFKNGTHLTTDIIWDGAGINPNAALTIFRHFDSASVVQGLVGEPPKTAWIMDYALLERIHYLLVAGFDVYGNFGHQLITRMFMDFLRMEGESNFVALLPRDMRHQELSSWYQNQSVQFSDFLQRNVKPFDQPTSVNYVTDNPKQELFAKLRKQVQSVLSDRYVITQTGFKAEHEFALRQIDHLRGEGLLPIPQLMMLMIESEQGKPQLFTLIHNNAHTNISSLFDEQNNRDPKNDNLTLVRGVVGSYPSAYLTLKENQIPELYQRLAAMKSEQDYVALLDRFAVRRSSPEFWAFSDLVHQWYRQDQPIEFGLLDYNRFENRLEHHHHHH,not soluble
7,LKAVNAKKDAKKIDFYEDFSCPHCAELGEVTDGPMTKAIENGDIVVNLRILNFLDRDGDDGNSTKAGAAALAVAQSGDWETYWNYRALLMKEQKNIYGKWGDNDFADVAKSLGASDEVTQKIREGGAKEDFRKFAEANSKKLEKDGGSVSSPRVFIDGKEVKNGIETWVEQATS,not soluble
8,MMLENKSINELYSIKLIEEADTKRLIKFMNKYMNSKHEFEMSKRIFLSDQILNQECYNDINIRSSIYNFYEEYIVMEKEGKIAALIALDINRNNLSKVLNLNLIICEEGEMSRLRDMFIFATEILPEYSIVEPTKIRTYIRENGIFTEYWKNKLMEAGFSHEVTRENEVGNGVALTTMIIKMK,not soluble
9,TKEHRAIARKTASESFVLLKNEGVLPLSKKGTIAVVGPLANTRSNMPGTWSVAAVLDNAPSLVEGLREVVGDRAKVVTAKGSNLIGDADYEKRATMFGRELHRDNRTDRELLDEALKVAAGADVIVAALGESSEMSGESSSRTNLEMPDVQRALLQELLKTGKSVVLVLFTGRPLVLTWEEEHVPAILNVWFGGSEAAYAISDVLFGDVNPSGKLTATFPQNVGQIPLFYNHKNTGRPLQEGRWFEKFRSNYLDVSNEPLYPFGYGL,not soluble
10,MSLSPLSKLDKIAVSGNKQLTENEVRKESGLEIGEFVIGISNGKTEDTLKKNTLIKDATVSKEGINDVQINITEFKTIGYQQQDGKYYDVLESGIMLTDQPRQFPIGNDLLFQNFKNGKTLEKMVAQINKLPKDVVSSISEVIYSPTKTDKNHIKLYMNDGNQVSADISTFAEKMQHYPAIVAQLAKGQKGVIDIEVGSYFQSYYQQNAEKKAAEEAAKEKKETNEGHHHHHH,soluble
11,SDENNGLLLLELNPPNPWDLQPRSPEELAFGEVQITYLTHACMDLKLGDKRMVFDPWLIGPAFARGWWLLHEPPSDWLERLCQADLIYISHLHSDHLSYPTLKKLAGRRPDIPIYVGNTERPVFWNLNQSGVQLTNINVVPFGIWQQVDKNLRFMILMDGVHPEMDTCIIVEYKGHKILNIVDCTRPNGGRLPMKVALMMSDFAGGASGFPMTFSGGKFTEEWKAQFIKTERKKLLNYKARLVKNLQPRIYCPFAGYFVESHPSDKYIKETNTKNDPNELNNLIKKNSDVITWTPRPGATLDLGRMLKDRTDSKGIIEPPEGTKIYKDSWDFEPYLEILNAALGDEIFLHSSWIKEYFTWAGFKDYNLVVRMIETDEDFNPFPGGYDYLVDFLDLSFPKERPQREHPYEEIHSRVDVIRHVVKNGLLWDELYIGFQTRLQRDPDIYHHLFWNHFQIKLPLTPPNWKSFLMCCEQNGPVILQECKTT,soluble
12,MSLEDTTITFWHAMNGVQEEALTKLTKDFMKENPKIKVELQNQSAYPDLQAKINSTLTSPKDLPTITQAYPGWLWNAAQDEMLVDLKPYMDDDTIGWKDAEPIREVLLDGAKIDGKQYGIPFNKSTEMLFYNADLLKEYGVEVPKTLEELKEASKTIYEKSNKEVVGAGFDSLNNYYAIGMKNKGVDFNKDLDLTSKDSQEVVDYYRDGIEAGYFRTAGSDKYLSGPFANKKVAMFVGSIAGAGFVQKDAEAGGYEYGVAPRPEKINLQQGTDIYMFDSATPEQRTAAFEFMKFLATPDSQLYWAQQTGYMPILESVLHSDEYKNSKTTKVPAQLENAVKDLFAIPVEENADSAYNEMRTIMESIFASSNKDTRKLLKDATSQFEQAWNQEGHHHHHH,soluble
13,ENKTLDEVTSDLVSRGAKFVGEELQLDVGGLLLHFFNYNGKIVVSSMKKVGFLQTLNRKRLENHPSFVFLEKEVPKSVFLEVFVDLYTLFDKLLGFSPRSSLLLIGYEEDGLIKYRLEVM,not soluble
14,MAHHHHHHQTQTPSQLLQSFTTRTTDYNQLINSVGINAITPQQIQRIEKLSGKAPHHYLSRGVFLAEKSLDKFLDDVEAKKPTFIFIQKYPQKEVALEEYITLEFARYLQDAFNIQVIIQILDDIKVLNREATINEASKMSNDLMKYILAFGFNEDKTFIYTDYQYFGKMYRTISLVEKATAYNVVQPFFNFEYSDNIGKLASPSIMTASMFSQSYSHFFSSPARCLVLDSIKNVQFHSIIDQIATTLNFIQPTVLFHKMVPLLSGVTKFDIPSDHNSILLSDNAKQVERKINKLAFSGGRNTTEEHKKLGGQCDIDVSFQLLNIFSSDNAQVKDVEEKYSKGELLSGELKKIVSASMKDFIVAYDAKKKPITTAYLKAYISKTKF,soluble
15,MGSSHHHHHHSSGLEVLFQGPHMDFDVKRKYFRQELERLDEGLRKEDMAVHVRRDHVFEDSYRELHRKSPEEMKNRLYIVFEGEEGQDAGGLLREWYMIISREMFNPMYALFRTSPGDRVTYTINPSSHANPNHLSYFKFVGRIVAKAVYDNRLLECYFTRSFYKHILGKSVRYTDMESEDYHFYQGLVYLLENDVSTLGYDLTFSTEVQEFGVAEVRDLKPNGANILVTEENKKEYVHLVCQMRMTGAIRKQLAAFLEGFYEIIPKRLISIFTEQELELLISGLPTIDIDDLKSNTEYHKYQSNSIQIQWFWRALRSFDQADRAKFLQFVTGTSKVPLQGFAALEGMNGIQKFQIHRDDRSTDRLPSAHTCFNQLDLPAYESFEKLRHMLLLAIQEASEGFGLA,soluble
16,MGSDKIHHHHHHMFWKKDPTVSWERKNINDIDFSRFNVAIIGGTGGLGRAISRELAQRNARVTVVGQTFRDEDLKDKINFVKADLSLVSECKRISHSDEIPYEELTHLIFTTGIFASRQRQATSEGLEKDMAVSYLSRYIIFHDVAKRLGISRTKKDDLPKVFIAGFPGNGQVGDPDDLNSDEKKYSAYATHMNTVAANESLVIDAKDRYTNIDTFGLNPGLIKTNIRNNLLGSDTYLSRITEWIISWTCQSAETYAKTICTLIASPAIESRSGTMFSNKGDAILPSPGLTKDVVEKFMENSELLVEKALRNQSPFTSSNE,not soluble
17,LKLKDRVKLFLTPQNALFEVLQKYSEDFLNGEEVVKDNFKIDTAAAMSFSAVFACNRVLSETLASCPIMLYEKDDKGNRRQVTDTAEYGVLHYAPNAEMTPVQFKEFGMTNINLGGNFIAQKVFNMHGELLELRPIAWDRVRIDIDKSTGRLLYYIDGKQEPKTRDEIFHIPGLTLDGYIGITPLSYAALTIDIGLSQDTFERNFYHNRASTSGIFQYPNELSDEAFQRLKKDIKKNYTGLSNAGVPMILEGGGQFKEITMKLTDAQFLESKRFRIEDVCRIFRVPLHLVQDLTRSTNNNIEHQSLEFIVYTMLPWFKKWEENLNLQLLSKESRRKNRYFEFNISGLLRGDIKSRYEAYAQGRQWGWLSVNDIRRLENMNPIDNGDRYLEPLNMSEAGKQEEQLKALREEIFNMINERK,soluble
18,MPSCEINLIFNDSEEPVTLRDTGIIMLVPVILRSVQSEFPDFENQDNVKVTSPLSIPFNKKAGVFLFEYIQKYVPPNDDTIHELTVVENYKEAGQKTLDELKEIIELANFFECTDFMECLGFVIGKKLEDKSVEEIAAYMGVECNAPGHFFDEADGWVHPPADAFQNVQ,not soluble
19,FQIGDMVARKSYQMDVLFRIIGIEQTSKGNSIAILHGDEVRLIADSDFSDLVAVKKDEQMMRKKKDESRMNESLELLRQDYKLLREKQEYYATSQYQHQEHYFHMPGKVLHLDGDEAYLKKCLNVYKKIGVPVYGIHCHEKKMSASIEVLLDKYRPDILVITGHDAYSKQKGGIDDLNAYRHSKHFVETVQTARKKIPHLDQLVIFAGACQSHFESLIRAGANFASSPSRVNIHALDPVYIVAKISFTPFMERINVWEVLRNTLTREKGLGGIETRGVLRIGMPYKSN,not soluble

# — the DeepSol protein solubility set
